This is an account of results in publication PMC2132775 (The Journal of Cell Biology, 1998).

Read-outs that look alike come from different tables or passages of the source.

Test [1] concerns the target FLA10, the 90-kD subunit of FLA10 kinesin-II (fla10 gene product) (Chlamydomonas reinhardtii (endogenous in flagella)) (UniProt P46869). Briefly: SEC + other: sucrose density gradient centrifugation.
For test [2] the target is unchanged. The test is described as above. This is another data set of the same source.
Test [3] addresses T1, FLA10, the 90-kD subunit of FLA10 kinesin-II (fla10 gene product) (Chlamydomonas reinhardtii (endogenous …, UniProt P46869 1-786)).
T1 sequence (looked up): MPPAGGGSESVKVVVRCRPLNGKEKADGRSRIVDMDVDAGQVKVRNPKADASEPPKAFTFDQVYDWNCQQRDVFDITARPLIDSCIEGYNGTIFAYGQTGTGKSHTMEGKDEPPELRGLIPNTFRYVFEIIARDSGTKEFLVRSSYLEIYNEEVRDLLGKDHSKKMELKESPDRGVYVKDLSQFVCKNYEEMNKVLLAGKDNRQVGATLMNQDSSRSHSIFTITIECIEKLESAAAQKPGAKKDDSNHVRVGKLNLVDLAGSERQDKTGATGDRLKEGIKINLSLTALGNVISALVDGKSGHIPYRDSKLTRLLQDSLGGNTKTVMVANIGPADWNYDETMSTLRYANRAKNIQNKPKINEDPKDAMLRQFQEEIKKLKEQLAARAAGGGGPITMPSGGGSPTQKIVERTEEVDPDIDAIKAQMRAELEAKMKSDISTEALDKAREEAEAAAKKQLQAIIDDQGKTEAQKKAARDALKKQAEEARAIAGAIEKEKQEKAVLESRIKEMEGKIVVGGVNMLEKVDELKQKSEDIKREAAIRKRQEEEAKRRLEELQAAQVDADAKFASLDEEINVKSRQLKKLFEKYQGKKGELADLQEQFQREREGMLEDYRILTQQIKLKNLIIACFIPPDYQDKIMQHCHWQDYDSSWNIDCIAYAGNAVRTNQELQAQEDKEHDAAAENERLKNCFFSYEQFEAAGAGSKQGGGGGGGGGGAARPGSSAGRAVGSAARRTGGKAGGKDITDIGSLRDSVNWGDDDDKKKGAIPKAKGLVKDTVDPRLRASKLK
The description is as above.

Test [4] addresses T2, p172, IFT particle polypeptide of complex B (Chlamydomonas reinhardtii (endogenous in flagella)), Q5DM57.
T2 chain: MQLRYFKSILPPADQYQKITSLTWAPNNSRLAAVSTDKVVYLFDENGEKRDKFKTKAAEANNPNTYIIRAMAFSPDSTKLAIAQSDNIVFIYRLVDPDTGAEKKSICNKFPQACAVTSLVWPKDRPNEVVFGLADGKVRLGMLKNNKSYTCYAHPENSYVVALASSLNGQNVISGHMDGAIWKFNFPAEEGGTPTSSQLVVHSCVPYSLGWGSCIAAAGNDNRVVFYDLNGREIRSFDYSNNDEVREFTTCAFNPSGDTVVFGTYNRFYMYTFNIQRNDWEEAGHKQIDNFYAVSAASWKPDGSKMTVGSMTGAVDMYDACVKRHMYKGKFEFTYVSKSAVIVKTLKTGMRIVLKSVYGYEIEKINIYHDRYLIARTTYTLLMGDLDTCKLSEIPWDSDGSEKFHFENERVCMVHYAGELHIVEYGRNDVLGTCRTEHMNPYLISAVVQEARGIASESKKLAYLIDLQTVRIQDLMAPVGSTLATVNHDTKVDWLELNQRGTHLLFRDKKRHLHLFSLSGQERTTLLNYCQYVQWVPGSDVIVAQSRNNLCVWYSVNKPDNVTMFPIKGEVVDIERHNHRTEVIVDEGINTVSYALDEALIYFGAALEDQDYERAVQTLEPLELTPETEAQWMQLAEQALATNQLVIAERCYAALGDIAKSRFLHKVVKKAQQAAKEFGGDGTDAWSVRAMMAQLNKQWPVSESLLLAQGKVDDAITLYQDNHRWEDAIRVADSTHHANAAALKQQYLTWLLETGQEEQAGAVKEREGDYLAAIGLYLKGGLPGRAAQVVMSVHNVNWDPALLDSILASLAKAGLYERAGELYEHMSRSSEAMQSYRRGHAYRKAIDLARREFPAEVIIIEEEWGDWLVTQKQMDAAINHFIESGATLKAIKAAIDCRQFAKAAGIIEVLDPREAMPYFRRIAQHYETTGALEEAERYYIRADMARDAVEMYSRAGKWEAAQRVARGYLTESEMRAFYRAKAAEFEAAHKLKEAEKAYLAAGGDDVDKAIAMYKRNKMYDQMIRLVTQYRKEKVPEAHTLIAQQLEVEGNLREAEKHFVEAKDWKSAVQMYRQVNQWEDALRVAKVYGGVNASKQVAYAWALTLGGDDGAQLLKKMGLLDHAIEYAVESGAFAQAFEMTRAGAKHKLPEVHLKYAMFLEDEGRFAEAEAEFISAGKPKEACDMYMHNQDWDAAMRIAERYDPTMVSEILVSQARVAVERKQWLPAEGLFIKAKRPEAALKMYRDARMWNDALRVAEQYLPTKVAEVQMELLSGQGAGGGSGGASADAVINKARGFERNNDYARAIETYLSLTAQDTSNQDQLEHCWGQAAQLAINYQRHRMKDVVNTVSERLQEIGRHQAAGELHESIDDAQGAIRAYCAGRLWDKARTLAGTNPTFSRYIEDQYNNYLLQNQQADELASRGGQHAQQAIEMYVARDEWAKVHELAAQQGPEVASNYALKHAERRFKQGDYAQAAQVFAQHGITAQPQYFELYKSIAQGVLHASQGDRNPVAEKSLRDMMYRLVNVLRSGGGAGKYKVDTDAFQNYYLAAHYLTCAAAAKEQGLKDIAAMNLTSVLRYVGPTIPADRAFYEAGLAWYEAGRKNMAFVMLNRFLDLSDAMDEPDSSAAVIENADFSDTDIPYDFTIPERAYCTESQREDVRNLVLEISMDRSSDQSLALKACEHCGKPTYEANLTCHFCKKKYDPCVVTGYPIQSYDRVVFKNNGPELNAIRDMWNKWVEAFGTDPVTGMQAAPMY
Briefly: sucrose density gradient centrifugation. The note with it: remark: other sources report otherwise.

With “100-kD nonmotor subunit of FLA10 kinesin-II (natural protein)”, the stoichiometry N in test [1] was found to be 1; in test [2] it was 0.8.

B1: 85-kD subunit of FLA10 kinesin-II (natural protein, UniProt A7LGV1 1-768, looked up)
chain: MASGGECVKVAVRCRPLNGKEKGDNRATIVEVDNKTGQVTLNNPKGDEPPKTFTFDNAFDWNVTQRDVYDVVARPIVNSVMDGYNGTIFAYGQTGTGKTHTMEGFPTPELQGIIPNCFDHVFETVNSSTGKQWMVRASYLEIYNEEVRDLLSKDPKNKLELKEHKDSGVYVKGLNAFVVKGVPELKNVLEVGKKNRSVGATLMNQDSSRSHSIFTITIETIEQTQAQPEGHIRVGKLNLVDLAGSERQSKTGATGDRLKEATKINLSLSALGNVISALVDGKSGHVPYRDSKLTRLLQDSLGGNTKTIMCANMGPADWNYDETLSTLRYANRAKNIKNKPKINEDPKDAMLREFQDEIARLKAALEAEGGALPEGFATGPGGEIIVEKVVQVPKALDASFLEQMRKDMEEQMKKELASQQAAALNDEQLQKVKEEAAAKAKAEAARLEEEKKKAEEEAARMQRKQQKIKAEMDKKSLDAEQIRAEKEALAKKLKAMESKILKGDQAGGLAEVTKKKEEELKRKEQELERRRKEEEEQRKKIQVMEEQQLAMEDKYKDKADEADQKTKKLKKLWKKFQEVNAEVEDMYKEFQREKEDLLESIRMLQDQMQLKDMVIEAFIPPEEVQKVMKRAHWDDEREVWVLERLSDIGKRETAQGASRRPVSASGQRRPTSDFAKLANAMGDMNPRFKSENILNLELDLPERTTYDYEGPGVDPRVQAAINAAFAEDGELIFVGSEQNVHLGDASAAAARPDSAKKRPASARKGTKK
For the molecule B1, in test [3], the “stoichiometry N” value worked out at 1.

B2: p81, IFT particle polypeptide of complex B, Q68RJ5 1-683 (natural protein)
chain: MGDVSYIVDSLGLPPFSYQMSLLSFTEKGPQELLQLLSDVFSTISPKHQKVDVAKEVPDQTADRLIGFLKIIKYRPNVQDPLLFRQLVAAGDRETLYQILRWVVPQAQLLEKRAFVGYYLSFPDMPEEFNFDPDIMELKEEIKAMQQEFIELHKSSDAIKTLSKDTQALKNKIKSLEEEKERLGEKVERAKGAVDKLPDRSSYMEVCTNLRKQQDEEVNLSTAIQTQRALQEKAEASYHRAAARLRELQTSYQEGSAGKLLETLNEDVKNLRAQVNERYPKEVEKRQKRQAALSEALASGISTEMDLQRLQHQATALHNQITEIQERKVAQDKARQGDKAYLQLRQAQQMATVSARKKEELGAKQERLQEKKTALTAQLDKLNAEGGGSGAVFSEEEWRTKYESMKSKLPIYKKMKKELGDLEAEVFVLAHTEELLASQEGGLLEKVKRLEKQQGISGFTETAQHLEKVSEAKSQMDEEKGMTLIEISRTVEEINNAINQRKQQLAPQIKKLRSVRQDFAEFEAKYLEKKTAYDNVVATFEARTSALEGEVSGLKAEVSENETKYHMLHCQLHITDQNIKKVTSGPAAERLRDKYEAKVKEAEDSTKALRDRQREIKDTHSTGLSQIDIMNDMLRLLQLKLNLARGIAVDMSQYGGGGGAAGGANGGMAGQTYDTGSANVLQL
Turning to B2, the stoichiometry N in test [4] worked out at 1.
